# B1: TBX5 (parent)
# chain: FHEVGTEMIITKAGRRMFPSYKVK
# B2: ZER1 (parent)
# chain: FDGPEAWGVCEPQREEVEERMWAA
# Variants of: B1
# Test: protein stability index of a GFP-peptide fusion (GPS, HEK-293T) (PSI 1-6); higher = more stable
# Conditions: c terminus: a fixed tail appended
# 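Further: lentivirally expressed fusions sorted by FACS into six bins by GFP to DsRed ratio, PSI derived from sequencing read proportions per bin multiplied by bin number.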
row,Variant,protein stability index
1,K24N,1.08
2,K24I,1.54
3,K24L,1.99
4,K24S,1.15
5,K24A,1.99
6,K24Q,1.33
7,K24F,2.83
8,K24P,1.55
9,K24D,2.2
10,K24T,2.41
11,K24M,2.55
12,K24C,2.62
13,V23Q,2.09
14,V23P,2.8
15,V23S,2.27
16,V23G,2.9
17,V23W,2.2
18,V23A,2.35
19,V23N,2.26
20,V23T,2.14
21,V23R,2.71
22,V23K,2.24

row,Variant,protein stability index
1,V23F,2.23
2,V23D,2.52
3,V23H,2.17
4,V23Y,1.82
5,V23I,1.97
6,V23E,2.5
7,V23M,1.78
8,V23L,1.41
9,V23C,1.84
10,P19Q,1.98
11,P19S,2.72
12,P19T,2.1
13,P19M,1.4
14,P19N,1.61
15,P19G,2
16,P19F,1.79
17,P19Y,3.12
18,P19H,1.09
19,P19L,1.74
20,P19A,2
21,P19I,2.23
22,P19E,2.19

row,Variant,protein stability index
1,P19K,3.38
2,P19D,2.2
3,P19V,1.77
4,P19R,2.89
5,P19W,1.75
6,P19C,2.53
7,S20E,2.02
8,S20Q,2.83
9,S20I,2.54
10,S20D,2.18
11,S20H,2.31
12,S20M,2.67
13,S20G,1.93
14,S20N,2.06
15,S20W,2.42
16,S20R,2.61
17,S20K,2.18
18,S20T,2.69
19,S20P,2.42
20,S20C,3.1
21,S20V,1.97
22,S20Y,2.84

row,Variant,protein stability index
1,S20A,1.89
2,S20L,1.86
3,A13C,2.03
4,A13T,1.68
5,A13E,2.68
6,A13L,2.61
7,A13G,1.84
8,A13F,1.97
9,A13P,1.93
10,A13D,2.57
11,A13Q,2.65
12,A13M,1.3
13,A13Y,1.55
14,A13N,2.27
15,A13V,2.02
16,A13W,1.93
17,A13K,2.44
18,A13H,2.11
19,A13R,2.65
20,A13S,1.87

# Variants of: B2
# Test: as above
# Conditions: c terminus: a fixed tail appended
row,Variant,protein stability index
1,A23N,2.93
2,A23T,2.67
3,A23G,2.9
4,A23C,2.46
5,E16S,2.25
6,E16L,1.62
7,E16K,1.98
8,E16Y,2.11
9,E5R,3.48
10,E5I,2.94
11,E5F,3.67
12,A24F,1.96
13,A24W,2.15
14,A24G,3.03
15,A24L,2.98
16,A24T,2.49
17,A24N,2.76
18,A24M,2.51
19,R20S,2.79
20,R20F,2.65
21,R20I,2.27

row,Variant,protein stability index
1,R20E,3.17
2,R20W,2.15
3,R20D,2.94
4,R20Y,2.5
5,E19K,3.35
6,E19L,2.17
7,P4E,4.48
8,P4D,3.89
9,P12T,3.17
10,P12D,2.88
11,P12R,3.53
12,R14L,1.8
13,R14A,2.18
14,R14G,3.36
15,W22C,3.17
16,W22S,3.25
17,W22E,3.79
18,V17C,2.3
19,V17A,2.27
20,V17G,2.36
21,V9S,4.12

row,Variant,protein stability index
1,V9E,4.03
2,V9K,2.59
3,V9R,2.5
4,E11C,2.15
5,M21G,3.27
6,M21V,3.45
7,M21L,2.71
8,M21D,3.16
9,M21C,2.46
10,G3V,1.63
11,G3H,1.87
12,G3E,1.52
13,D2K,3.26
14,A6T,2.48
15,A6R,3.35
16,A6H,2.38
17,A6S,3.53
18,E18T,2.62
19,E18C,2
20,E18F,2.5
21,E18V,2.12

row,Variant,protein stability index
1,E18H,3.04
2,E18L,2.11
3,E18A,2.27
4,G8I,2.25
5,W7T,4.69
6,W7H,4.63
7,W7I,4.89
8,E15P,1.46
9,E15H,1.79
10,E15V,2.63
11,E15F,1.56
12,E15W,1.52
13,Q13L,2.68
14,C10F,3.21
15,C10Y,2.86
16,C10N,3.26
17,C10Q,3.26
18,C10D,4.42
